Assay results published in patent US20200392251A1 (University of California, published 2020).
Residue numbers refer to the chain shown, from its start.

B1: anti-MMP-14 Fab 2B12 (Fab, V domains shown)
VH: EVQLVESGGGLVQPGGSLRLSCAASGFNIYYSSMHWVRQAPGKGLEWVAYIYSSSSYTYYADSVKGRFTISADTSKNTAYLQMNSLRAEDTAVYYCARDCCSCVFSQSAGITLACVYVMDYWGQGTLVTVSS
VL: DIQMTQSPSSLSASVGDRVTITCRASQSVSSAVAWYQQKPGKAPKLLIYSASSLYSGVPSRFSGSRSGTDFTLTISSLQPEDFATYYCQQWGPHYAPITFGQGTKVEIKR
notes: Fab from a synthetic human Fab library, produced in E. coli periplasm; also called Clone 2B12
B2: anti-MMP-12 Fab LH11 (Fab, V domains shown)
VH: EVQLVESGGGLVQPGGSLRLSCAASGFNLSYYSMHWVRQAPGKGLEWVAYIYPYYGSTYYADSVKGRFTISADTSKNTAYLQMNSLRAEDTAVYYCARFLLSIGKLFVGDGSILHVWL
VL: DIQMTQSPSSLSASVGDRVTITCRASQSVSSAVAWYQQKPGKAPKLLIYSASSLYSGVPSRFSGSRSGTDFTLTISSLQPEDFATYYCQQAYYGYLFTFGQGTKVEIKR
notes: Fab from a synthetic human Fab library with long CDR-H3s, produced in E. coli periplasm; also called Clone LH11
B3: anti-MMP-14 Fab 1A5 (Fab, V domains shown)
VH: EVQLVESGGGLVQPGGSLRLSCAASGFNLYYYYMHWVRQAPGKGLEWVAYIYPYSGSTYYADSVKGRFTISADTSKNTAYLQMNSLRAEDTAVYYCARLDFLMRDIYYDLGGGALGWLIKYAMDYWGQGTLVTVSS
VL: B2 VL with A91Y, Y92S, Y93G, G94P, L96P, F97I
notes: Fab from a synthetic human Fab library, produced in E. coli periplasm; also called Clone 1A5
B4: anti-MMP-12 Fab LH6 (Fab, V domains shown)
VH: EVQLVESGGGLVQPGGSLRLSCAASGFNLSYSYMHWVRQAPGKGLEWVASIYPSYGSTYYADSVKGRFTISADTSKNTAYLQMNSLRAEDTAVYYCARDLEESLPKRARTAVSKELESVPYVMDYWGQGTLVTVSS
VL: DIQMTQSPSSLSASVGDRVTITCRASQSVSSAVAWYQQKPGKAPKLLIYSASSLYSGVPSRFSGSRSGTDFTLTISSLQPEDFATYYCQQSSHYASPPITFGQGTKVEIKR
notes: Fab from a synthetic human Fab library with long CDR-H3s, produced in E. coli periplasm; also called Clone LH6
B5: anti-MMP-14 Fab 2B4 (Fab, V domains shown)
VH: EVQLVESGGGLVQPGGSLRLSCAASGFNLYSSYIHWVRQAPGKGLEWVASIYSSYSSTYYADSVKGRFTISADTSKNTAYLQMNSLRAEDTAVYYCARSDSAVYSVRRMGSSGLAAYAMDYWGQGTLVTVSS
VL: B4 VL with S91Y, H93Y, Y94G, A95Y, P97S, P98L
notes: Fab from a synthetic human Fab library, produced in E. coli periplasm; also called Clone 2B4
B6: anti-BACE1 IgG B2B2 (antibody, V domains shown)
VH: EVQLVESGGGLVQPGGSLRLSCAASGFNISSYYMHWVRQAPGKGLEWVASIYSSYGYTYYADSVKGRFTISADTSKNTAYLQMNSLRAEDTAVYYCARYWGYYAWFGSHPWAYGAFDYWGQGTLVTVSS
VL: DIQMTQSPSSLSASVGDRVTITCRASQSVSSAVAWYQQKPGKAPKLLIYSASSLYSGVPSRFSGSRSGTDFTLTISSLQPEDFATYYCQQYGYYLITFGQGTKVEIKR
B7: anti-MMP-12 Fab LG4 (Fab, V domains shown)
VH: EVQLVESGGGLVQPGGSLRLSCAASGFNLYYSYMHWVRQAPGKGLEWVASISSYYGYTSYADSVKGRFTISADTSKNTAYLQMNSLRAEDTAVYYCARSPIVYYELFMFIDMGAQGWKYGMDYWGQGTLVTVSS
VL: DIQMTQSPSSLSASVGDRVTITCRASQSVSSAVAWYQQKPGKAPKLLIYSASSLYSGVPSRFSGSRSGTDFTLTISSLQPEDFATYYCQQTFYPFTFGQGTKVEIKR
notes: Fab from a synthetic human Fab library with long CDR-H3s, produced in E. coli periplasm; also called Clone LG4

Legend:
[1] = molecular target: T1, catalytic domain of human MMP-14 (cdMMP-14) (human, UniProt P50281 114-320); experiment: FRET peptide inhibition assay; KI=IC50/(S/Km+1)
T1 construct: range 114-320; Produced active in E. coli periplasm; biotinylated for BLI/ELISA
Procedure: (§1) For inhibition tests, 1 μM Fabs were 2-fold serially diluted into protease specific assay buffer and incubated with 1-10 nM proteases for 30 min at room temperature. […] Inhibition percentages at given concentrations were calculated by comparing the initial reaction rates in the presence or absence of inhibitor. […] Vₘₐₓ and Kₘ at various Fab concentrations were measured to determine the inhibition type. FRET inhibition assays were also used for selectivity tests of isolated Fabs with the relevant proteases.

[2] = molecular target: T1, catalytic domain of human MMP-14 …; experiment: biolayer interferometry; biotinylated protease on streptavidin sensor, Fab in solution
Procedure: (§2) Binding kinetics of produced antibodies towards associated protease targets were analyzed by using biolayer interferometry (ForteBio). For Fabs, biotinylated proteases were immobilized on streptavidin biosensors, and Fab binding to the sensors in absence of protease was monitored as backgrounds.

[3] = molecular target: T1, catalytic domain of human MMP-14 …; experiment: enzyme inhibition assay with FRET peptide substrate (M-2350), Fab titrated on cdMMP-14 [panel 2B12]
Procedure: as §1

[4] = molecular target: T1, catalytic domain of human MMP-14 …; experiment: bio-layer interferometry (ForteBio), biotinylated protease on streptavidin biosensor, Fab in solution [panel 2B12]
Procedure: as §2

[5] = molecular target: human MMP-12 catalytic domain mutant D4 (cdMMP-12 D4) (human); experiment: cell-based or functional assay
[6] = molecular target: T2, human MMP-12 catalytic domain wild type (cdMMP-12 wt) (human, UniProt P39900 106-263); experiment: cell-based or functional assay
T2 sequence (P39900 other isoform, or with tags, fused parts or gaps limits assumed): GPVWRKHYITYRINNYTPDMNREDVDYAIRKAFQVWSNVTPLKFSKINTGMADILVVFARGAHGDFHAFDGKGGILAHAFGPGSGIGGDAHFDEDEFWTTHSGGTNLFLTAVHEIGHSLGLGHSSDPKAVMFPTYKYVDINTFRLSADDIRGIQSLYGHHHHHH

[7] = molecular target: T1, catalytic domain of human MMP-14 …; experiment: bio-layer interferometry
[8] = molecular target: T1, catalytic domain of human MMP-14 …; experiment: FRET peptide inhibition assay
Procedure: (§3) To calculate inhibition constants (KIs), data were fit with the equations for slow tight-binding inhibitors. The inhibition type of the Fabs was determined using the initial velocities of cdMMP-12 D4 as a function of substrate concentration (250-2000 nM) at various Fab concentrations (31-500 nM). The values of Vₘₐₓ and Kₘ were derived from linearization in accordance with the Lineweaver-Burk equation.

[9] = molecular target: T3, human MMP-12 catalytic domain mutant D4 (cdMMP-12 D4) (human); experiment: FRET peptide (M-2350) inhibition assay
T3 construct: PROSS-designed expression-optimised mutant; Cytoplasmically expressed in E. coli, purified on Ni-NTA; biotinylated for ELISA/BLI; also called cdMMP-12 mutant D4; modified D4
T3 sequence (chain, as listed by the source mutant limits assumed): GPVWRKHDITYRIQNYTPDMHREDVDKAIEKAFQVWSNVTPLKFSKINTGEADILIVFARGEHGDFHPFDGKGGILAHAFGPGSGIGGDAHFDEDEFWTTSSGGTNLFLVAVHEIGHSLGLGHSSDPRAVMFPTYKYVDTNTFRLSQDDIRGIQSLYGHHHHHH
Procedure: as §3

[10] = molecular target: T1, catalytic domain of human MMP-14 …; experiment: bio-layer interferometry; reference cdMMP-12 wt
[11] = molecular target: T1, catalytic domain of human MMP-14 …; experiment: FRET peptide inhibition assay; reference cdMMP-12 mutant D4
Procedure: as §3

[12] = molecular target: T3, human MMP-12 catalytic domain mutant D4 …; experiment: direct ELISA; biotinylated cdMMP on streptavidin plate, Fab titrated, anti-Fab-HRP
Procedure: (§4) On streptavidin coated ELISA plates, 5 μg/mL biotinylated cdMMPs were immobilized and incubated with two-fold serially diluted purified Fabs. Bound Fabs were detected with anti-Fab-HRP (Sigma-Aldrich), and signals were developed by TMB substrate (Thermo Scientific) and measured using a microplate reader (BioTek). […] Bound Fabs were detected using anti-Fab-HRP. For bio-layer interferometry (using ForteBio BLItz), biotinylated cdMMP-12 D4/wt was loaded onto streptavidin biosensors. After washing to establish baselines, 50, 100, or 200 nM of Fabs were associated with immobilized cdMMP-12 D4/wt for 200 sec, then dissociated into 50 mM HEPES, 150 mM NaCl pH 7.5 for 120 sec. Averages of measured kₒₙ and koff values were determined for KD calculations.

[13] = molecular target: T2, human MMP-12 catalytic domain wild type …; experiment: as above
Procedure: as §4

[14] = molecular target: T3, human MMP-12 catalytic domain mutant D4 …; experiment: bio-layer interferometry (BLItz); biotinylated cdMMP-12 on streptavidin sensor, 50/100/200 nM Fab
Procedure: as §4

[15] = molecular target: T2, human MMP-12 catalytic domain wild type …; experiment: as above
Procedure: as §4

[16] = molecular target: T3, human MMP-12 catalytic domain mutant D4 …; experiment: bio-layer interferometry (ForteBio BLItz), biotinylated cdMMP-12 D4 on streptavidin biosensor, Fab at 50, 100 and 200 nM [panel A, LH11]
Procedure: as §4

[17] = molecular target: T2, human MMP-12 catalytic domain wild type …; experiment: bio-layer interferometry (ForteBio BLItz), biotinylated cdMMP-12 wt on streptavidin biosensor, Fab at 50, 100 and 200 nM [panel B, LH11]
Procedure: as §4

[18] = molecular target: T1, catalytic domain of human MMP-14 …; experiment: enzyme inhibition assay with FRET peptide substrate (M-2350), Fab titrated on cdMMP-14 [panel 1A5]
Procedure: as §1

[19] = molecular target: T1, catalytic domain of human MMP-14 …; experiment: bio-layer interferometry (ForteBio), biotinylated protease on streptavidin biosensor, Fab in solution [panel 1A5]
Procedure: as §2

[20] = molecular target: T3, human MMP-12 catalytic domain mutant D4 …; experiment: bio-layer interferometry (ForteBio BLItz), biotinylated cdMMP-12 D4 on streptavidin biosensor, Fab at 50, 100 and 200 nM [panel A, LH6]
Procedure: as §4

[21] = molecular target: T2, human MMP-12 catalytic domain wild type …; experiment: bio-layer interferometry (ForteBio BLItz), biotinylated cdMMP-12 wt on streptavidin biosensor, Fab at 50, 100 and 200 nM [panel B, LH6]
Procedure: as §4

[22] = molecular target: T1, catalytic domain of human MMP-14 …; experiment: enzyme inhibition assay with FRET peptide substrate (M-2350), Fab titrated on cdMMP-14 [panel 2B4]
Procedure: as §1

[23] = molecular target: T1, catalytic domain of human MMP-14 …; experiment: bio-layer interferometry (ForteBio), biotinylated protease on streptavidin biosensor, Fab in solution [panel 2B4]
Procedure: as §2

[24] = molecular target: human β-secretase 1 (BACE1), extracellular/catalytic domain (human, UniProt P56817 46-457, limits assumed); experiment: cell-based or functional assay
Sequence of human β-secretase 1 (BACE1), extracellular/catalytic domain (P56817 46-457 limits assumed, form in doubt): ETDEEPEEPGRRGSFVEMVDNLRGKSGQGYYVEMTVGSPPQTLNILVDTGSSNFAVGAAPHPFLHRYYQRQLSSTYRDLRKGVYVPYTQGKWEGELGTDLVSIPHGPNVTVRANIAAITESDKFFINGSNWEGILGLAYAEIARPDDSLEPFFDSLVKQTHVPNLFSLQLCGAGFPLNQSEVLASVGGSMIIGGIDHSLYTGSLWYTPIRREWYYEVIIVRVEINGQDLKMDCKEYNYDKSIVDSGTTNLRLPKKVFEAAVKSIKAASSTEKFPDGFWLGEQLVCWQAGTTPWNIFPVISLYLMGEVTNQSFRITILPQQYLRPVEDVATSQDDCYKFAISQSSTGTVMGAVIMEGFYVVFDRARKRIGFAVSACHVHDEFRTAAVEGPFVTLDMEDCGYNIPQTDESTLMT

[25] = molecular target: T3, human MMP-12 catalytic domain mutant D4 …; experiment: bio-layer interferometry (ForteBio BLItz), biotinylated cdMMP-12 D4 on streptavidin biosensor, Fab at 50, 100 and 200 nM [panel A, LG4]
Procedure: as §4

[26] = molecular target: T2, human MMP-12 catalytic domain wild type …; experiment: bio-layer interferometry (ForteBio BLItz), biotinylated cdMMP-12 wt on streptavidin biosensor, Fab at 50, 100 and 200 nM [panel B, LG4]
Procedure: as §4

| Binder | Ki [1] [nM] | Kd [2] [nM] | Inhibition, Elastin-FITC IC50 [5] [nM] | Inhibition, Elastin-FITC IC50 [6] [nM] | Kd [7] [nM] | Ki [9] [nM] | fold (KD compared with cdMMP-12 wt) [10] [fold] | EC50 [12] [nM] | EC50 [13] [nM] | Kd [14] [nM] | Kd [15] [nM] | other results |
| --- | --- | --- | --- | --- | --- | --- | --- | --- | --- | --- | --- | --- |
| B1 | 120 | 76 |  |  |  |  |  |  |  |  |  | IC50 [3]: 140 nM; koff [4]: 0.0053 s⁻¹; kon [4]: 70000 M⁻¹ s⁻¹ |
| B2 |  |  | 18 | 23 | 780 | 75 | 10 | 100 | 140 | 38 | 75 | Inhibition, Fibronectin IC50 [6]: 510 nM; Ki [8]: 9600 nM; fold (KI compared with cdMMP-12 mutant D4) [11]: 130 fold; koff [16]: 0.0035 s⁻¹; kon [16]: 92000 M⁻¹ s⁻¹; koff [17]: 0.0032 s⁻¹; kon [17]: 43000 M⁻¹ s⁻¹ |
| B3 | 150 | 57 |  |  |  |  |  |  |  |  |  | IC50 [18]: 170 nM; koff [19]: 0.0025 s⁻¹; kon [19]: 44000 M⁻¹ s⁻¹ |
| B4 |  |  | 61 | 1700 | 480 | 91 | 1.1 | 290 | ~1000 | 510 | 430 | Ki [8]: 4700 nM; fold (KI compared with cdMMP-12 mutant D4) [11]: 52 fold; koff [20]: 0.011 s⁻¹; kon [20]: 22000 M⁻¹ s⁻¹; koff [21]: 0.0065 s⁻¹; kon [21]: 15000 M⁻¹ s⁻¹ |
| B5 | 98 | 66 |  |  |  |  |  |  |  |  |  | IC50 [22]: 110 nM; koff [23]: 0.00079 s⁻¹; kon [23]: 12000 M⁻¹ s⁻¹ |
| B6 |  |  |  |  |  |  |  |  |  |  |  | apparent IC50 of Aβ40 production, HEK293 cells expressing APP [24]: 330 nM |
| B7 |  |  | 210 | 350 | 640 | 76 | 9 | 97 | 180 | 37 | 71 | koff [25]: 0.0041 s⁻¹; kon [25]: 110000 M⁻¹ s⁻¹; koff [26]: 0.0038 s⁻¹; kon [26]: 54000 M⁻¹ s⁻¹ |
